Reference: patent US20240209022A1, “NOVEL PEPTIDE HAVING ANTI-INFLAMMATORY AND TISSUE REGENERATIVE ACTIONS” (KOREA RESEARCH INSTITUTE OF BIOSCIENCE AND BIOTECHNOLOGY, priority 2020, published 2024)

B1: Amuc_1409: SEQ ID NO: 15, functional fragment obtained by eliminating the leader sequence from SEQ ID NO: 14; protein derived from Akkermansia muciniphila (protein)
chain: IPESSVPAAAVSSIKGAYPNAGPIEWDSEMHGMERIYEAEFRINGFQFDVKIAPDGKIVRIKEEIAASSLPEAVRASVLKRYPGCRIKEAEKITEGELVRYKVEVADSRDDYDVLIAPDGNILHVDR
modifications: Amuc_1409_fragment
notes: protein derived from Akkermansia muciniphila

Tests used:
[1] = system: animal model of metabolic disease accompanied by obesity/diabetes and chronic inflammation; assay: High-fat diet obesity/diabetic metabolic disease model; assay type: in vivo, C57BL/6J mice; conditions: for blood glucose in insulin resistance experiment (ITT): after insulin administration, time as stated in the value
Procedure: An animal model of metabolic disease accompanied by obesity/diabetes and chronic inflammation was induced by feeding a high-fat diet.
The experiment in the groups administered with Amuc_1409 or PEP001 to PEP005 was performed using 8-week-old SPF male C57BL/6J mice, and the metabolic disease accompanied by obesity/diabetes and chronic inflammation was induced by ad libitum feeding of a high-fat diet for 45 weeks or 8 weeks. Specifically, mice fed a high-fat diet for 45 weeks were fed a high-fat diet for an additional 3 weeks, and Amuc_1409 was dissolved in PBS buffer at a concentration of 2.4 μM and then orally administered to the mice by 150 μL per animal at the same time once a day until the end of the experiment, or mice fed a high-fat diet for 8 weeks were fed a high-fat diet for an additional 3 weeks, and PEP001, PEP002, PEP003, PEP004, or PEP005 was dissolved in PBS buffer at a concentration of 2.4 μM and then orally administered to the mice by 150 μL per animal at the same time once a day until the end of the experiment. To the control group, PBS buffer was orally administered in the same manner.
For the experiment in the groups administered with PEP006 to PEP013, 8-week-old male C57BL/6J mice were used, and the metabolic disease accompanied by obesity/diabetes and chronic inflammation was induced by ad libitum feeding of a high-fat diet for 32, 50, or 53 weeks. Mice fed a high-fat diet for 32 weeks were fed a high-fat diet for an additional 3 weeks, and a novel tetrapeptide PEP006 was dissolved in PBS buffer at a concentration of 0.15 μg/150 μL (PEP006) and then orally administered to the mice by 150 μL per animal at the same time until the end of the test, mice fed a high-fat diet for 50 weeks were fed a high-fat diet for an additional 3 weeks, and a novel tetrapeptide PEP007, PEP008, PEP009, or PEP010 was dissolved in PBS buffer at a concentration of 0.2 μg/150 μL (PEP007 to PEP013) and then orally administered to the mice by 150 μL per animal at the same time until the end of the test, and mice fed a high-fat diet for 53 weeks were fed a high-fat diet for an additional 3 weeks, and a novel […] PEP011, PEP012, or PEP013 was dissolved in PBS buffer at a concentration of 0.2 μg/150 μL (PEP007 to PEP013) and then orally administered to the mice by 150 μL per animal at the same time until the end of the test. To the control group, PBS buffer was orally administered in the same manner.
For all animals, general symptoms were observed immediately before administration at the start of administration, and the body weight was measured until the end of the test after group separation.
Insulin (Humalog, 1 unit/kg) was intraperitoneally injected into mice fasted for 4 hours at 2 weeks after the start of test substance administration (2 weeks in groups administered with Amuc_1409 and PEP001 to PEP005 and 3 weeks in groups administered with PEP006 to PEP013), and then blood glucose at 30 minutes, 60 minutes, 90 minutes, and 120 minutes was measured from a small amount of blood obtained through a wound at the tip of the tail using ACCU-CHECK (Roche), thereby performing an insulin tolerance test (ITT).
At the end of the test, fasting blood glucose was measured from a small amount of blood obtained through a wound at the tip of the tail of the mouse fasted for 16 hours using ACCU-CHECK, and blood was collected from the orbital venous plexus using a heparin-treated capillary tube. The collected blood was immediately centrifuged at 10,000 rpm (4° C.) for 10 minutes to separate plasma, and then subjected to analysis of total cholesterol (TC) and low-density lipoprotein cholesterol (LDL-C), which are blood abnormal lipid indicators, using an automated blood biochemical analyzer.

[2] = system: depression and anxiety model; assay: LPS-induced depression and anxiety model (TST, FST, EPM); assay type: in vivo, C57BL/6J mice; conditions: vs PBS buffer group; for immobility time in forced swim test / immobility time in tail suspension test: oral, LPS-induced
Procedure: By Daehan Biolink, 7-week-old male C57BL/6J mice weighing 20-22 g were supplied, and the animals were sufficiently supplied with solid feed and water until the day of the experiment, acclimatized for 1 week while maintaining an environment with a temperature of 22° C. 2° C., a humidity of 55%±15%, and a 12-hour light/dark cycle, and then used in the experiment. From 3 days before inducing depression and anxiety, the peptide was dissolved in PBS buffer and orally administered to the mice by 150 μL per animal at the same time once a day. Amuc_1409 or PEP001, PEP002, PEP003, PEP004, or PEP005 was dissolved in PBS buffer at a concentration of 6.7 μM and then used, and novel tetrapeptides PEP006, PEP007, PEP008, PEP009, and PEP010 and novel tripeptides PEP011, PEP012, and PEP013 were each dissolved in PBS buffer at a concentration of 0.2 μg/150 μL and then used. On the 3rd day of peptide administration, lipopolysaccharide (LPS) dissolved in PBS buffer was intraperitoneally injected at a concentration of 0.8 mg/kg to induce depression and anxiety. Tail suspension test (TST) and forced swim test (FST) were conducted to analyze the effect on depression. As the TST, a tail suspension device was installed in an open white acrylic box of 20 cm×25 cm×30 cm size, and the mouse was suspended upside down at a height where the mouse's tail would not touch the floor, and then the time for which the mouse maintained immobility while observing in the same environment was measured for 6 minutes. […] Water at around 25° C. was filled in a transparent acrylic cylinder (45 cm depth×18 cm diameter) up to 30 cm from the bottom, the mouse was exposed to water, and the time for which the mouse maintained immobility while swimming was measured for 6 minutes. […] An elevated plus-maze (EPM) test was performed to analyze the effect on anxiety level. The EPM device consists of two open arms (50 cm×10 cm) and two […] (50 cm×10 cm) at a height of 50 cm from the floor, and the arms are connected by a central area of 10 cm×10 cm. At the start of the experiment, the mouse was placed in the center of the maze and the time for which the mouse stayed in the open arm was measured for a total of 5 minutes using a video camera, and the percentage of time spent in the open arm was calculated and recorded [(time spent in open arm/time spent in open and closed arms)×100]. In addition, in order to examine the anti-inflammatory activity according to the administration of Amuc_1409 and PEP001, PEP002, PEP003, PEP004, and PEP005 in an animal model of depression and anxiety, the expression of Ifnγ and Il-10 mRNA, which are major inflammatory genes related to depression, in brain tissue (hippocampus) was examined.

Row | Molecule | blood glucose in insulin resistance experiment (ITT) ([1]; vs PBS buffer group) | AUC value of the insulin resistance experiment ([1]; vs PBS buffer group) | immobility time in forced swim test [2] | immobility time in tail suspension test [2] | fasting blood glucose ([1]; after fasting for 16 hours at the end of the test) | body weight ([1]; oral, 3 weeks on high-fat diet, vs PBS buffer group) | maintenance of the decreased blood glucose in insulin resistance experiment ([1]; until 120 minutes after insulin) | abdominal fat ([1]; vs PBS buffer group) | Ifnγ mRNA expression in brain tissue (hippocampus) ([2]; RT-qPCR) | Il-10 mRNA expression in brain tissue (hippocampus) ([2]; RT-qPCR) | time spent in the open arm, elevated plus-maze test [2]
1 | RGAY (PEP007) | decreased to a significant level from 30 minutes to 120 minutes after insulin administration | decreased close to a significant level | tended to decrease | decreased |  |  |  |  |  |  | 
2 | B1 | decreased from 30 minutes to 120 minutes after insulin administration | decreased close to a significant level | significantly decreased | significantly decreased | significantly decreased | decreased from the initial body weight | significantly maintained until 120 minutes | significantly decreased | decreased | increased | increased
